The target of assay [1] is (H3-H4)2 tetramer (recombinant Xenopus laevis histones) (X. laevis) (UniProt P84233). Kind of assay: single-molecule photobleaching steps (optical tweezers with fluorescence detection); H2A-Cy3 hexasomes ligated to 2.5-kb DNA handles.
For assay [2] the target is unchanged. Kind of assay: single-molecule photobleaching steps (optical tweezers with fluorescence detection); H2A-Cy3 nucleosomes ligated to 2.5-kb DNA handles, at low tension.

Usually stoichiometry N stands for a count of units in the complex or per binding partner. With “H2A-Cy3-H2B heterodimer (H2A labelled with one Cy3 at the C-terminal tail by sortase) (from UniProt P06897 1-130; P02281 1-126) (complex)”, the results for the stoichiometry N in assay [1] and in assay [2] were 1 and 2, respectively.

The values are drawn from paper PMC9388122.
